What was measured:
PykFPA = target: T1, PykFPA (Pseudomonas aeruginosa, UniProt Q9I3L4); assay: lactate dehydrogenase-coupled assay, activation; assay type: biochemical; conditions: K-type activator (shifts S0.5 of PEP), 2 mM ADP, allosteric
T1 construct: gene pykF; full-length, 477 residues, untagged, from pET-19m in E. coli BL21(DE3)
T1 sequence (Q9I3L4 1-477): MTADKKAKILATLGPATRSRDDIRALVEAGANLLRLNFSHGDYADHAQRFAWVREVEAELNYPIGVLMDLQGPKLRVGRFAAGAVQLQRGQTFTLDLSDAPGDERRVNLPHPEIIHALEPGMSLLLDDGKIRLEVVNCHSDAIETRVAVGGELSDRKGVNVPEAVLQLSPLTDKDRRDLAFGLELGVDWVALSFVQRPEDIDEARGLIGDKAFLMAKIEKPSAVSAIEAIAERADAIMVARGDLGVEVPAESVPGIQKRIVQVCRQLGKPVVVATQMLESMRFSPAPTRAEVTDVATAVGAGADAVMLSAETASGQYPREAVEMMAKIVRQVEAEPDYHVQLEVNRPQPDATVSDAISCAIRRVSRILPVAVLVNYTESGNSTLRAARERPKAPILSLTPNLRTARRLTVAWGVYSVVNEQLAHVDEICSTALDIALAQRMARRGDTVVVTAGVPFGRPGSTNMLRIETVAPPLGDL

[1] = substrate: C=C(OP(=O)(O)O)C(=O)O; assay: lactate dehydrogenase-coupled assay; assay type: biochemical, Pseudomonas aeruginosa; conditions: 2 mM ADP; Mg2+; no regulator added; sigmoidal
[2] = substrate: Nc1ncnc2c1ncn2[C@@H]1O[C@H](COP(=O)(O)OP(=O)(O)O)[C@@H](O)[C@H]1O; assay: lactate dehydrogenase-coupled assay; assay type: biochemical, Pseudomonas aeruginosa; conditions: 5 mM PEP; Mg2+; no regulator added; hyperbolic
[3] = target: the molecule itself; assay: AUC; purified PykFPA in solution; carried out as previously described (Abdelhamid et al., 2019); analysed with SEDFIT and SEDNTERP

## O=P(O)(O)OC[C@H]1OC(O)[C@H](O)[C@@H]1O (stereo partly shown) [ribose 5-phosphate]
PykFPA; 0.15 mM
  lactate dehydrogenase-coupled assay, activation: ribulose 5-phosphate (RL5P), and R5P]

## Nc1ncnc2c1ncn2[C@@H]1O[C@H](COP(=O)(O)O)[C@@H](O)[C@H]1O [adenosine 5′-monophosphate]
PykFPA; 1 mM
  lactate dehydrogenase-coupled assay, activation: PykFPA (but not PykAPA) was activated by AMP

## O=C(CO)[C@@H](O)[C@H](O)COP(=O)(O)O [xylulose 5-phosphate]
PykFPA; 0.5 mM
  lactate dehydrogenase-coupled assay, activation: strongly activated by metabolites from the non-oxidative PPP [(xylulose 5-phosphate (X5P)

## O=C(CO)[C@H](O)[C@H](O)COP(=O)(O)O [ribulose 5-phosphate]
PykFPA; 0.5 mM
  lactate dehydrogenase-coupled assay, activation: ribulose 5-phosphate (RL5P), and R5P]

## O=P(O)(O)OC[C@H]1OC(O)[C@H](O)[C@@H](O)[C@@H]1O (stereo partly shown) [glucose 6-phosphate]
PykFPA; 1 mM
  lactate dehydrogenase-coupled assay, activation: to a lesser extent, by the EDP intermediates G6P and G3P

## O=C[C@H](O)COP(=O)(O)O [glyceraldehyde 3-phosphate]
PykFPA; 1 mM
  lactate dehydrogenase-coupled assay, activation: to a lesser extent, by the EDP intermediates G6P and G3P

B1: Pseudomonas aeruginosa pyruvate kinase isozyme PykF (PykFPA) (enzyme, UniProt Q9I3L4 1-477, looked up)
chain: MTADKKAKILATLGPATRSRDDIRALVEAGANLLRLNFSHGDYADHAQRFAWVREVEAELNYPIGVLMDLQGPKLRVGRFAAGAVQLQRGQTFTLDLSDAPGDERRVNLPHPEIIHALEPGMSLLLDDGKIRLEVVNCHSDAIETRVAVGGELSDRKGVNVPEAVLQLSPLTDKDRRDLAFGLELGVDWVALSFVQRPEDIDEARGLIGDKAFLMAKIEKPSAVSAIEAIAERADAIMVARGDLGVEVPAESVPGIQKRIVQVCRQLGKPVVVATQMLESMRFSPAPTRAEVTDVATAVGAGADAVMLSAETASGQYPREAVEMMAKIVRQVEAEPDYHVQLEVNRPQPDATVSDAISCAIRRVSRILPVAVLVNYTESGNSTLRAARERPKAPILSLTPNLRTARRLTVAWGVYSVVNEQLAHVDEICSTALDIALAQRMARRGDTVVVTAGVPFGRPGSTNMLRIETVAPPLGDL
notes: Pyruvate kinase PykF of Pseudomonas aeruginosa (PA1498), untagged full-length protein, 477 residues, monomer 51.5 kDa; also called PA1498; source: E. coli BL21 (DE3) with plasmid pET-19m (pykF), purified
[1]
  K0.5: 1.03 ± 0.01 mM
  kcat: 379 s⁻¹
  kcat/Km: 367000 M⁻¹ s⁻¹
[2]
  K0.5: 0.11 ± 0.01 mM
  kcat: 433 s⁻¹
  kcat/Km: 3.94e+06 M⁻¹ s⁻¹
[3]
  stoichiometry N: 4

Reference: PMC8637920, “Structure, Function and Regulation of a Second Pyruvate Kinase Isozyme in Pseudomonas aeruginosa” (Frontiers in Microbiology, 2021)
